Substitutions are numbered along the chain they refer to. “And” between values parts separate entries of the source, which are not always exact repeats. Identical values can stand only once.
B1: BMS3h-193-12 (other)
VL: DIQMTQSPSSLSASVGDRVTITCRASQTIERRLNWYQQKPGKAPKLLIYLASRLQSGVPSRFSGSGSGTDFTLTISSLQPEDFATYYCHQYESPPLTFGQGTKVEIKR
notes: dAb, single VK
B2: BMS3h-193-18 (other)
VL: B1 VL with E30G, T69S
notes: dAb, single VK
B3: BMS3h-193-25 (other)
VL: B1 VL with K45R, S52T
notes: dAb, single VK
B4: BMS3h-193-26 (other)
VL: B1 VL with T28P
notes: dAb, single VK
B5: BMS3h-193-30 (other)
VL: B1 VL with T28S
notes: dAb, single VK
B6: BMS3h-193-11 (other)
VL: B1 VL with A43D
notes: dAb, single VK
B7: BMS3h-193-10 (other)
VL: B1 VL with T5S, S10T, T97M
notes: dAb, single VK
B8: BMS3h-193-7 (other)
VL: B1 VL with M4I, A43D
notes: dAb, single VK
B9: BMS3h-193-27 (other)
VL: B1 VL with E30G
notes: dAb, single VK
B10: BMS3h-193-19 (other)
VL: B1 VL with D70E
notes: dAb, single VK
B11: BMS3h-198-10 (other)
VH: EVQLLESGGGLVQPGGSLRLSCAASGSTIAGYEMWWVRQAPGKGLERVSAISGSGGSTYYADSVKGRFTISRDDSKNTLYLQMNSLRAEDTAVYYCAKDPYSFDYWGQGTLVTVSS
notes: dAb, single VH
B12: BMS3h-198-11 (other)
VH: B11 VH with S27F, I29F, K98R, T113S
notes: dAb, single VH
B13: BMS3h-198-37 (other)
VH: B11 VH with S27F, I29F, M34L, W106R
notes: dAb, single VH
B14: BMS3h-198-38 (other)
VH: B11 VH with S27F, I29F, M34L, K98R
notes: dAb, single VH
B15: BMS3h-198-19 (other)
VH: B11 VH with S27F, I29F, M34L, K98R, W106R
notes: dAb, single VH
B16: BMS3h-198-14 (other)
VH: B11 VH with S27F, I29F, V37F, S75T, G107R
notes: dAb, single VH
B17: BMS3h-198-22 (other)
VH: B11 VH with S27F, I29F, D99E, F103Y, Q108H
notes: dAb, single VH
B18: BMS3h-202-5 (other)
VH: EVQLLESGGGLVQPGGSLRLSCAASGFTFPTAEMLWVRQAPGKGLEWVSSISASGGSTYYADSVKGRFTISRDNSKNTLYLQMNSLRAEDTAVYYCAKEPVSYVATFDYWGQGTLVTVSS
notes: domain antibody (dAb): single human VH domain
B19: BMS3h-56-7 (other)
VH: EVQLLESGGGLVQPGGSLRLSCAASGFTFRDYEMWWVRQAPGKGLERVSAINPQGTRTYYADSVKGRFTISRDNSKNTLYLQMNSLRAEDTSVYHCAKPPFIFGDWGPGTLVTVSS
notes: as for B18
B20: BMS3h-56-9 (other)
VH: B19 VH with K65M, S92A, H95Y, P99L, I102M, G104D, W106R, P108Q
notes: as for B18
B21: BMS3h-43-1 (other)
VH: EVQLLESGGGLVQPGGSLRLSCTASGFTFNMYEMSWVRQAPGKGLEWVSGISRRGFTTYYADSVKGRFTISRDNSKNTLYLQMNSLRAEDTAVYYCAKEPITYDLRYARFDYSGQGTLVTVSS
notes: as for B18
B22: BMS3h-43-3 (other)
VH: B21 VH with S75F, L105M, S113G
notes: as for B18
B23: BMS3h-193-25 (other)
VL: B1 VL with K45R, S52T
notes: domain antibody (dAb): single human V kappa domain
B24: BMS3h-131-2 (other)
VL: DIQMTQSPSSLSASVGDRVTITCRADSSILWALAWYQQKPGKAPKLLIESSSGLQSGVPSRFSGSGSGTDFTLTISSLQPEDFATYYCVQNAVWPGTFGQGTKVEIKR
notes: as for B23
B25: BMS3h-37-2 (other)
VH: EVQLLESGGGLVQPGGSLRLSCAASGFTFEWYEMQWVRRAPGKGLEWVSAISGDGYRTYYADSVKGRFTISRDNSKNTLYLQMNSLRAEDTAVYYCAKELGYFDYWGRGTLVTVSS
notes: as for B18
B26: BMS3h-37-9 (other)
VH: B25 VH with A23V, R39Q, K43N, V48I
notes: as for B18
B27: BMS3h-38-3 (other)
VH: EVQLLASGGGLVQPGGSLRLSCAASGFTFEEEEMIWVRQAPGKGLEWISAISGSGGSTYYADSVKGRFTISRDNSKNTLYLQMNSLRAEDTAVYYCGKEPFRFDYWGQGTLVTVSS
notes: as for B18
B28: BMS3h-38-2 (other)
VH: B27 VH with I48V, F103Y
notes: as for B18
B29: BMS3h-41-1 (other)
VH: EVQLLESGEGLVQPGGSLRLSCAASGFTFTEHEMIWVRQAPGKGLEWVSSISGNGANTYYADSVKGRFTISRDNSKNTLYLQMNSLRPEDTAVYYCAKEPLRFDYWGQGTLVTVSS
notes: as for B18
B30: BMS3h-198-1 (other)
VH: B11 VH with K98R
notes: as for B18
B31: BMS3h-37-5 (other)
VH: B25 VH with R39Q, V48I, W106R, G107V, R108Q
notes: as for B18
B32: BMS3h-38-1 (other)
VH: B27 VH with A6G, I48V, G97S
notes: as for B18

These binders were tested against T1, human CD40 (BMS, CY24FEB06-01) (human, UniProt P25942 21-193) (assay: ELISA RBA, competition with IZ-CD40L;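 further: Neutravidin-coated 384-well plate, dAb–human CD40 complex bound for 2 h at room temperature, absorbance read at 450 nm after HCl stop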).
T1 construct: Soluble reagent of the bead and ELISA RBA; It is detected with an anti-human IgG (Fc) mAb, so it may be a CD40-Ig fusion
T1 sequence (P25942 21-193 limits assumed): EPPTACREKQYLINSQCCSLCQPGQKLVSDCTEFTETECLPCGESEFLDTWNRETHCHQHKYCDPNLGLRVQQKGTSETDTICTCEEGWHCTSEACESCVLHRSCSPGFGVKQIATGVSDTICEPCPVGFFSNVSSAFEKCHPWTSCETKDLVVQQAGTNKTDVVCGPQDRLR
Description: Clear walled High Bind, 384-well plates (Corning, UK) were coated with 25 μl of 1 μg/ml Neutravidin in 0.2 M carbonate-bicarbonate buffer, pH 9.4 overnight at 4° C. The following day, assay plates were washed with 0.1% (v/v) Tween PBS buffer, blocked with 1% (w/v) BSA in PBS for 1 hour at room temperature and washed again. […] Following washing of the assay plate, the dAb:human CD40 complex was incubated in the assay plate at room temperature for 2 hours with gentle agitation. […] Absorbance signal was measured using a SpectraMax® M5e plate reader (Molecular Devices) at 450 nm following neutralization with 1M HCl solution.

EC50 | Binder
0.2 µM | B1
0.1 µM | B2
0.14 µM | B3
0.1 µM | B4
0.29 µM and 0.116 µM | B5
0.3 µM | B6
0.2 µM | B7
0.3 µM | B8
0.1 µM | B9
0.1 µM | B10
0.035 µM | B11
0.02 µM | B12
0.0151 µM | B13
0.0072 µM | B14
0.0079 µM | B15
0.009 µM | B16
0.01 µM | B17

Each binder was assayed against T2, biotinylated human CD40 (BMS) (human, UniProt P25942 21-193, limits assumed, biotinylated (sites not given)) (assay: BIAcore SPR, immobilised biotinylated human CD40, 1:1 fit;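 further: binding kinetics of dAbs flowed over the CD40 surface at 25 °C in HBS-EP, 300 s dissociation, signal corrected by reference cell and buffer blank, global Langmuir fit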).
T2 construct: Ligand immobilised on the streptavidin BIAcore chip
T2 sequence (P25942 21-193 limits assumed): as above

Kd [µM] | koff [s⁻¹] | kon [M⁻¹ s⁻¹] | Binder
0.3 | 0.0013 | 4400 | B18
0.0035 | 0.00047 | 130000 | B19
0.0026 | 0.00039 | 150000 | B20
0.14 | 0.00063 | 4400 | B21
0.019 | 0.00059 | 31000 | B22
0.081 | 0.037 | 460000 | B23
0.021 | 0.0017 | 79000 | B24
0.004 | 0.00041 | 100000 | B25
0.012 | 0.00018 | 15000 | B26
0.0055 | 0.00041 | 75000 | B27
0.012 | 0.00075 | 61000 | B28
0.011 | 0.00056 | 51000 | B29
0.013 | 0.00018 | 15000 | B30
0.0055 | 0.00022 | 39000 | B31
0.033 | 0.0011 | 32000 | B32

Source: patent US20200199244A1 (published 2020)
